Patent publication US20210340516A1, “COMPOSITIONS CONTAINING ARGINASE 1 FOR THE TREATMENT OF NEUROVASCULAR AND RETINAL VASCULAR DISORDERS” (Augusta University Research Institute, Inc., priority 2020, published 2021)

Experiments:
[1] = Pharmacokinetic profile of PEG-A1 in mouse vitreous by arginase activity after intravitreal administration; format: in vivo; conditions: adult mice, intravitreal 6.8 ng in 1 μL
Excerpt: Based on the results of the above studies showing detrimental effects of A1 hemizygous deletion on vascular repair in A1^+/− mice and the findings that increases in A1 expression accompany the beneficial effects of A2 deletion on the vascular injury, it was hypothesized that treatment with A1 could be useful in limiting OIR-induced retinal injury. To test this, a PEG-A1 was used. […] Adult mice were used in this experiment to get higher vitreous yield for ease of processing.

[2] = test system: WT pups subjected to oxygen-induced retinopathy (OIR); experiment: OIR mouse model: Western blotting and immunolabelling of retina (A1, cleaved PARP, calbindin horizontal cells); format: in vivo
Procedure: Western blotting analysis: Retina lysates were homogenized in RIPA buffer supplemented with protease and phosphatase inhibitors. Samples (20 μg protein) were run on 10% sodium dodecyl sulfate-polyacrylamide gel electrophoresis, transferred to nitrocellulose membrane and reacted with primary antibody followed by horseradish peroxidase-linked secondary antibody and enhanced chemiluminescence (Amersham Pharmacia). β-actin (mouse monoclonal antibody, 1:5000, Sigma-Aldrich) or GAPDH served as a loading control. The following primary antibodies were used: GFAP, PARP, A1.
Immunofluorescence labelling: PFA fixed eyeballs were washed in PBS and cryoprotected. Cryostat sections (15 μm) were permeabilized in 1% Triton (20 min) and blocked in 10% normal goat serum containing 1% BSA (one hour). Sections were then incubated overnight in primary antibodies at 4° C. On day two, the sections were incubated at room temperature for 1 hour in fluorescent conjugated secondary antibodies (Life Technologies), washed in PBS and mounted with Vectashield (Vector Laboratories)
PBS was used as vehicle control. Pups were anesthetized before treatment by intraperitoneal (i.p.) injection of ketamine/xylazine mixture. Intravitreal injections were performed using a 36-gauge NanoFil needle mounted to a 10-μL Hamilton syringe (World Precision Instruments). Two treatment strategies were employed. […]

[3] = test system: WT C57BL/6J mice subjected to retinal ischemia-reperfusion (IR) injury; experiment: Retinal ischemia-reperfusion (IR) injury: neuronal survival by NeuN labeling of retinal flat-mounts; format: in vivo, mouse; conditions: 25 mg/kg i.p. at 3 hours and day 4, 7 days post-injury; vehicle group 40%
Procedure: Mouse retinal ischemia-reperfusion (IR) injury and traumatic optic neuropathy (TON) models: All experiments were performed in accordance with the ARVO Statement for the Use of Animals in Ophthalmic and Vision Research and were approved by the institutional animal care and use committee (Animal Welfare Assurance no. D16-00197). Wild-type (WT) C57BL/6J mice (10-12 weeks old) were anesthetized using ketamine/xylazine mixture then subjected to retinal ischemia-reperfusion (IR) injury or optic nerve crush (ONC) to model traumatic optic neuropathy (TON) as described in Shosha, et al., Cell death & disease, 7:e2483-e (2016) and Xu, et al., Frontiers in Neuroscience, 12:970 (2018). […]
Evaluation of retinal neurodegeneration: Retina flat-mounts and explants were immunolabeled for the neuronal marker, NeuN (Millipore), as previously described in Shosha, et al., Cell death & disease, 7:e2483-e (2016). Images were collected and analyzed in a blinded fashion using a semi-automated method. […] NeuN-positive cells were quantified using ImageJ software ‘Batch processing’ function. […] The macro was validated every time it was used to make sure it is compatible with the set of images being analyzed. […]

[4] = MCAO stroke model: PEG-A1 penetration into the brain (Western blot); format: in vivo, mouse; conditions: 60 minutes MCAO, 24 hours after stroke, perfused
Procedure: Western blotting: Western blotting on retina or brain was conducted as described in Fouda, A Y, et al., Cell death & Disease, 9:1001 (2018). Membranes were probed with anti-PEG (RevMAb Biosciences, 1:1000) and anti-albumin (Bethyl Laboratories, 1:5000). Uncropped blots are included in FIG. 22.
MCAO model: C57BL/6J mice (12-16 week-old male, 25-30 g) were subjected to middle cerebral artery occlusion (MCAO) using the intraluminal filament technique (Docol 602145) for 60-minutes followed by reperfusion as described in Eldahshan, et al., American Journal of Physiology Heart and Circulatory Physiology, 316:H1192-h201 (2019). […] A heating pad was used to maintain body temperature at 37° C. […] Sham surgery involved all the regular surgery steps except the filament insertion. Mice were deeply anesthetized at 24 hours and sacrificed by trans-cardial perfusion with PBS then brains were collected and sectioned for triphenyl tetrazolium chloride (TTC) staining or homogenized in RIPA lysis buffer for western blotting.
PEG-A1 treatment in acute retinal and brain injury mouse models: A pharmaceutical grade of PEG-A1 was provided as a kind gift from Bio-Cancer Treatment International Limited (BCT, Hong Kong). […] Methoxy polyethylene glycol propionic acid (MW 5,000—Sigma, Catalog number 88908-1G-F) was used as vehicle control. […]

[5] = test system: primary rat retinal mixed neurons; experiment: Primary retinal mixed neurons subjected to OGD/R, LDH release assay; conditions: 6 hours OGD and 18 hours reperfusion, PEG-A1 1 μg/mL at reoxygenation
Procedure: Retinas from ten pups were collected and washed twice with ice-cold 1×PBS. They were digested with 0.5% trypsin for 3-4 min at 37° C., followed by trypsin inactivation with the culture medium, DMEM/F12 (Gibco, Grand Island, N.Y.) plus 10% FBS and 1% Penicillin-Streptomycin (P/S) solution (Invitrogen, Grand Island, N.Y.). The retina tissue was mechanically dissociated by pipetting several times until cells were dispersed. Cells were then filtered through a 40 μm nylon-mesh filter, collected by centrifugation at 1000 rpm for 10 min, re-suspended in culture medium, and plated in 6 or 12 well-cell culture plates (Corning, Corning, N.Y.) coated with Poly-D-lysine hydrobromide (PDL, Sigma) at a density of 0.5×10^6 cells/mL. The plates were maintained in a humidified CO2 incubator at 37° C. and 5% CO2. At days 1, 2, and 3 in vitro (DIV), half of the medium was aspirated and replaced with Neurobasal A medium containing 1×B-27 (GIBCO), 1× glutaMAX (GIBCO) and 1% P/S. Experiments were conducted at DIV 6.

B1: PEG-A1: recombinant human arginase (rhArg) covalently attached to methoxy polyethylene glycol (mPEG-SPA; MW 5,000) via succinamide propionic acid (SPA) linker (protein, UniProt P05089 1-322, looked up)
Arginase-1: MSAKSRTIGIIGAPFSKGQPRGGVEEGPTVLRKAGLLEKLKEQECDVKDYGDLPFADIPNDSPFQIVKNPRSVGKASEQLAGKVAEVKKNGRISLVLGGDHSLAIGSISGHARVHPDLGVIWVDAHTDINTPLTTTSGNLHGQPVSFLLKELKGKIPDVPGFSWVTPCISAKDIVYIGLRDVDPGEHYILKTLGIKYFSMTEVDRLGIGKVMEETLSYLLGRKKRPIHLSFDVDGLDPSFTPATGTPVVGGLTYREGLYITEEIYKTGLLSGLDIMEVNPSLGKTPEEVTRTVNTAVAITLACFGLAREGNHKPIDYLNPPK
modifications: mPEG-SPA 5 kDa conjugate
notes: recombinant human arginase (rhArg) covalently attached to methoxy polyethylene glycol (mPEG-SPA; MW 5,000) via succinamide propionic acid (SPA) linker
vitreous arginase activity ([1]; day 3 post injection): three-fold | vitreous arginase activity ([1]; day 6): returned to baseline | vitreous arginase activity as compared to vehicle treatment ([1]; immediately after administration): about six-fold increase | OIR-induced calbindin-positive horizontal cell loss ([2]; P17, compared to vehicle treatment): significantly rescued | cleavage of the pro-apoptotic marker PARP (Western blot) ([2]; P17 OIR retinal lysates): significantly reduced | neuronal survival after retinal IR (NeuN, % of sham retina) [3]: 62% | anti-PEG immunoreactivity in stroked brains (Western blot, also anti-A1) [4]: strong band | cell death (LDH release) [5]: increased cell death
